Measurements reported in patent US20050244828A1.

Molecular target: CD22-Fc fusion protein (extra-cellular domain of human CD22 fused to human IgG Fc) (human) (UniProt P20273)

Question: With “BL22, a recombinant immunotoxin containing the FV domains of RFB4 fused to PE38, a truncated form of (from UniProt P11439 278-638)” as the substance, how does the percent inhibition of measured sCD22 level read?
Answer: 50%
